In patent US20050060764A1, “Mouse model for bone metabolism” (priority 2003, published 2005):

Assays:
[1] = Short-term bone resorption model: serum calcium after PTH infusion (Table 6); assay type: in vivo, mouse; conditions: mice infused with PTH 1 ug/100 g/6 hr
Excerpt: (§1) Parathyroidectomized rats are a well-established, short-term model of bone resorption and are useful in the investigation of antiresorptive agents. However, it is difficult to surgically remove only the parathyroid gland of rodents, and the inadvertent removal of the adjacent thyroid gland often has effects on thyroid hormone levels that introduce into the experiment an undesirable level of variability. Continuous infusion of parathyroid hormone (PTH) into intact, young (6-9 weeks old) mice reproduces the short-term bone resorption activity seen in parathyroidectomized rodents and is thus a useful, non-invasive model for the study of antiresorptive agents. The PTH infusion activates bone osteoclasts and causes them to degrade bone matrix, with a resulting rise in serum calcium. In accordance with the present invention, a short-term mouse model of bone resorption was developed and used to evaluate the effects of PTH infusion on serum calcium concentration and RANKL mRNA levels.
Female, Swiss-Webster mice (5-8 weeks old) were placed on a low calcium diet and implanted with mini-pumps delivering PTH continuously. The pumps were calibrated to deliver 1 ug PTH per 100 g bodyweight per 6 hour time period (1 ug/100 g/6 hr). With this procedure, over a 24 hour period, a total of 4 ug PTH per 100 g body weight is delivered (4 ug/100 g/24 hr). PTH infusion was conducted in these mice for 6, 12, 18 and 24 hours. At the end of each time period, the mice were sacrificed and measurements were made of the serum calcium, using the Sigma Diagnostics Calcium Kit (Sigma-Aldrich), and RANKL mRNA expression in the proximal tibia, as described in other examples herein. The data are expressed as percent increase relative to no PTH treatment.

[2] = system: RANKL mRNA; test: Short-term bone resorption model: RANKL mRNA expression in proximal tibia after PTH infusion (Table 6); assay type: in vivo, mouse; conditions: mice infused with PTH 1 ug/100 g/6 hr
Excerpt: Probes and primers to mouse RANKL were designed to hybridize to a mouse RANKL sequence, using published sequence information (GenBank accession number AF013170.1, incorporated herein as SEQ ID NO:ll). For mouse RANKL the PCR primers were: • forward primer: […] (SEQ ID NO:12) • reverse primer: […] (SEQ ID NO: 13) and • the PCR probe was: FAM-[…]-TAMRA (SEQ ID NO: 14) where FAM is the fluorescent reporter dye and TAMRA is the quencher dye. For mouse GAPDH the PCR primers were: • forward primer: […](SEQ ID NO:15) • reverse primer: […](SEQ ID NO:16) and the • PCR probe was: 5′ JOE-[…]-TAMRA 3′ (SEQ ID NO: 17) where JOE is the fluorescent reporter dye and TAMRA is the quencher dye.
as §1
Female, Swiss-Webster mice (5-8 weeks old) were placed on a low calcium diet and implanted with mini-pumps delivering PTH continuously. The pumps were calibrated to deliver 1 ug PTH per 100 g bodyweight per 6 hour time period (1 ug/100 g/6 hr). […] The data are expressed as percent increase relative to no PTH treatment.

[3] = Serum calcium concentration after PTH infusion in mice: specificity and dose response of RANK antisense oligonucleotide (Table 15); assay type: in vivo, mouse; conditions: control mice, no oligonucleotide; PTH 1 ug/100 g/6 hr 24 h, calcitonin 400 ng
Description: In accordance with the present invention, the specificity of RANK inhibition by a RANK antisense oligonucleotide was compared to that of an 8-base pair mismatch oligonucleotide.
ISIS 181080 ([…], SEQ ID NO: 357) is an antisense oligonucleotide targeted to mouse RANK. ISIS 208565 ([…], SEQ ID NO: 358) is an 8-base pair mismatch oligonucleotide. […] All cytidine residues are 5-methylcytidines.
Female Swiss-Webster mice (5-8 wks old) fed a low-calcium diet were treated for two weeks with either ISIS 181080 or ISIS 208565. The dose of oligonucleotide was either 40 mg/kg, 30 mg/kg, 20 mg/kg, or 10 mg/kg. After the 2-week treatment with oligonucleotides, the mice were infused with PTH by subcutaneously implanted mini-pumps at a dose of 4 ug/100 g over 24 hours. A group of control mice were dosed with either saline, PTH alone (1 ug/100 g/6 hr) or calcitonin (400 ng) plus PTH (1 ug/100 g/6 hr). After 24 hours of PTH infusion (total PTH delivery of 4 ug/100 g), the mice were sacrificed and measurements were made of serum calcium with the Sigma Diagnostics Calcium Kit (Sigma-Aldrich) and RANK mRNA expression in proximal tibia (as described in other examples herein). The results shown in Table 15 are the average from four mice per group. Percent inhibition of RANK mRNA is normalized to PTH treatment alone. […] The data also illustrate that these effects are occurring due to an antisense mechanism.

[4] = system: RANKL mRNA; test: RANKL mRNA expression in primary mouse osteoblast cells after PTH treatment: time course (Table 7); assay type: cell-based; conditions: 10 nM PTH; for RANKL mRNA % control: primary osteoblast cells
Description: Primary mouse osteoblasts were prepared from calvaria of neonatal mice purchased from Charles River Laboratories. […] Cells were not passaged. Cells were seeded onto 6-well plates (Falcon-Primaria #353846) at a density of 50,000 cells/well for use in antisense oligonucleotide transfection.
In a further embodiment of this invention, the effect of PTH treatment on the expression of RANKL was determined in primary osteoblast cells isolated from mice skull caps. Primary osteoblastic cells were treated for 24 hours with either saline or the transfection reagent FuGENE 6 (Roche Applied Science, Indianapolis, Ind.). […] The RNA was then harvested and the expression levels of RANKL mRNA were measured by the methods described herein. The data are expressed as percent increase over untreated control cells.

B1: parathyroid hormone (peptide, UniProt P01270 32-115, looked up)
Parathyroid hormone: SVSEIQLMHNLGKHLNSMERVEWLRKKLQDVHNFVALGAPLAPRDAGSQRPRKKEDNVLVESHEKSLGEADKADVNVLTKAKSQ
notes: parathyroid hormone infused to induce bone resorption in the mouse model
Serum Calcium Concentration % control ([1]; 6 hours): 109 % control | Serum Calcium Concentration % control ([1]; 12 hours): 115 % control | Serum Calcium Concentration % control ([1]; 18 hours): 125 % control | Serum Calcium Concentration % control ([1]; 24 hours (4 ug/100 g)): 230 % control | RANKL mRNA % control ([2]; 12 hours): 242 % control | RANKL mRNA % control ([2]; 18 hours): 117 % control | RANKL mRNA % control ([2]; 24 hours (4 ug/100 g)): 205 % control | serum calcium [3]: 20 mg/dL | RANKL mRNA % control ([4]; 0.5 hours, FuGENE 6 treatment): 185 % control | RANKL mRNA % control ([4]; 0.5 hours, saline treatment): 168 % control | RANKL mRNA % control ([4]; 1 hour, FuGENE 6 treatment): 750 % control | RANKL mRNA % control ([4]; 1 hour, saline treatment): 700 % control | RANKL mRNA % control ([4]; 2 hours, FuGENE 6 treatment): 1275 % control | RANKL mRNA % control ([4]; 2 hours, saline treatment): 908 % control | RANKL mRNA % control ([4]; 4 hours, FuGENE 6 treatment): 467 % control | RANKL mRNA % control ([4]; 4 hours, saline treatment): 383 % control | RANKL mRNA % control ([4]; 6 hours, FuGENE 6 treatment): 340 % control | RANKL mRNA % control ([4]; 6 hours, saline treatment): 326 % control | RANKL mRNA expression in response to PTH ([4]; primary mouse osteoblast cells, in the presence of saline or FuGENE 6): upregulated in response to PTH
